Patent US20260015399A1 (Boehringer Ingelheim, published 2026)
*1 amine or outer side, *2 acyl side, *3 side chain or, on linkers, in order; H or OH if unused. Side-chain parts run from the residue outwards. The star is where a group is joined. C18 diacid = O=C(O)CCCCCCCCCCCCCCCCC(=O)*; γGlu = O=C(O)[C@H](CCC(=O)[*:2])N[*:1]; Isovaleryl = CC(C)CC(=O)*; Ahx = NCCCCCC(=O)O

T1: human NPY2 receptor (human, UniProt P49146 1-381)
T1 construct: whole, on cells; also called hNPY2-R; hNPY2R
T1 sequence (looked up): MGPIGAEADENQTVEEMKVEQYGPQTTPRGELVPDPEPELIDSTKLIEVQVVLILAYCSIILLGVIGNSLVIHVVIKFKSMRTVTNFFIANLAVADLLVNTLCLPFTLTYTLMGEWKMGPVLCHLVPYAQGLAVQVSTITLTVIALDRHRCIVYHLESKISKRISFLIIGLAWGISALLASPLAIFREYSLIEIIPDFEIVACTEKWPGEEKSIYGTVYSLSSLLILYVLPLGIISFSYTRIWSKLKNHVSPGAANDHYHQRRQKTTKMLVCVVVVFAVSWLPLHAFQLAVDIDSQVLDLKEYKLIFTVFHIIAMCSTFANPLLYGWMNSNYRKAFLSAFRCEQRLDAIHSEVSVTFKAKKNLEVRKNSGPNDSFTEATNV

B1: Compound 35 (peptide)
peptide: Isovaleryl-APAK([Ahx-γGlu-C18 diacid])PEEAATPEELQRYYVSLRHYYNWLTRQRY-NH2
SMILES: CC(C)CC(=O)N[C@@H](C)C(=O)N1CCC[C@H]1C(=O)N[C@@H](C)C(=O)N[C@@H](CCCCNC(=O)CCCCCNC(=O)CC[C@H](NC(=O)CCCCCCCCCCCCCCCCC(=O)O)C(=O)O)C(=O)N1CCC[C@H]1C(=O)N[C@@H](CCC(=O)O)C(=O)N[C@@H](CCC(=O)O)C(=O)N[C@@H](C)C(=O)N[C@@H](C)C(=O)N[C@H](C(=O)N1CCC[C@H]1C(=O)N[C@@H](CCC(=O)O)C(=O)N[C@@H](CCC(=O)O)C(=O)N[C@@H](CC(C)C)C(=O)N[C@@H](CCC(N)=O)C(=O)N[C@@H](CCCNC(=N)N)C(=O)N[C@@H](Cc1ccc(O)cc1)C(=O)N[C@@H](Cc1ccc(O)cc1)C(=O)N[C@H](C(=O)N[C@@H](CO)C(=O)N[C@@H](CC(C)C)C(=O)N[C@@H](CCCNC(=N)N)C(=O)N[C@@H](Cc1c[nH]cn1)C(=O)N[C@@H](Cc1ccc(O)cc1)C(=O)N[C@@H](Cc1ccc(O)cc1)C(=O)N[C@@H](CC(N)=O)C(=O)N[C@@H](Cc1c[nH]c2ccccc12)C(=O)N[C@@H](CC(C)C)C(=O)N[C@H](C(=O)N[C@@H](CCCNC(=N)N)C(=O)N[C@@H](CCC(N)=O)C(=O)N[C@@H](CCCNC(=N)N)C(=O)N[C@@H](Cc1ccc(O)cc1)C(N)=O)[C@@H](C)O)C(C)C)[C@@H](C)O
B2: Compound 36 (peptide)
peptide: Isovaleryl-APAK([Ahx-γGlu-C18 diacid])PEEAATPEEIQRYYVSLRHYYNWLTRQRY-NH2
SMILES: CC[C@H](C)[C@H](NC(=O)[C@H](CCC(=O)O)NC(=O)[C@H](CCC(=O)O)NC(=O)[C@@H]1CCCN1C(=O)[C@@H](NC(=O)[C@H](C)NC(=O)[C@H](C)NC(=O)[C@H](CCC(=O)O)NC(=O)[C@H](CCC(=O)O)NC(=O)[C@@H]1CCCN1C(=O)[C@H](CCCCNC(=O)CCCCCNC(=O)CC[C@H](NC(=O)CCCCCCCCCCCCCCCCC(=O)O)C(=O)O)NC(=O)[C@H](C)NC(=O)[C@@H]1CCCN1C(=O)[C@H](C)NC(=O)CC(C)C)[C@@H](C)O)C(=O)N[C@@H](CCC(N)=O)C(=O)N[C@@H](CCCNC(=N)N)C(=O)N[C@@H](Cc1ccc(O)cc1)C(=O)N[C@@H](Cc1ccc(O)cc1)C(=O)N[C@H](C(=O)N[C@@H](CO)C(=O)N[C@@H](CC(C)C)C(=O)N[C@@H](CCCNC(=N)N)C(=O)N[C@@H](Cc1c[nH]cn1)C(=O)N[C@@H](Cc1ccc(O)cc1)C(=O)N[C@@H](Cc1ccc(O)cc1)C(=O)N[C@@H](CC(N)=O)C(=O)N[C@@H](Cc1c[nH]c2ccccc12)C(=O)N[C@@H](CC(C)C)C(=O)N[C@H](C(=O)N[C@@H](CCCNC(=N)N)C(=O)N[C@@H](CCC(N)=O)C(=O)N[C@@H](CCCNC(=N)N)C(=O)N[C@@H](Cc1ccc(O)cc1)C(N)=O)[C@@H](C)O)C(C)C

Molecular target: T1, human NPY2 receptor
Assay: RLB: displacement of 125I-PYY(1-36) from hNPY2R membranes

Binder	Ki [nM]
B1	1.4
B2	1.25
